Experimental data published in publication PMC7954794 (2021).

B1: S. cerevisiae Abp1 (full length; SH3 domain 535-592 mutated) / Hua2 (parent complex)
chain 1: MALEPIDYTTHSREIDAEYLKIVRGSDPDTTWLIISPNAKKEYEPESTGSSFHDFLQLFDETKVQYGLARVSPPGSDVEKIIIIGWCPDSAPLKTRASFAANFAAVANNLFKGYHVQVTARDEDDLDENELLMKISNAAGARYSIQTSSKQQGKASTPPVKKSFTPSKSPAPVSKKEPVKTPSPAPAAKISSRVNDNNDDDDWNEPELKERDFDQAPLKPNQSSYKPIGKIDLQKVIAEEKAKEDPRLVQKPTAAGSKIDPSSDIANLKNESKLKRDSEFNSFLGTTKPPSMTESSLKNDDDKVIKGFRNEKSPAQLWAERKAKQNSGNAETKAEAPKPEVPEDEPEGEPDVKDLKSKFEGLAASEKEEEEMENKFAPPPKKSEPTIISPKPFSKPQEPVKAEEAEQPKTDYKKIGNPLPGMHIEADNEEEPEENDDDWDDDEDEAAQPPLPSRNVASGAPVQKEEPEQEEIAPSLPSRNSIPAPKQEEAPEQAPEEEIEEEAEEAAPQLPSRSSAAPPPPPRRATPEKKPKENPWATAEYDYDAAEDNELTFVENDKIINIEFVDDDWWLGELEKDGSKGLFPSNYVSLGN
chain 2: MQQTKFGKMYLDHDSVVEYSEDEIVEADRITLGYKKRLSMIENQMRHLLEDFSLDVQQIEPILADLQKYYDAFLQLLQKRNKSLQCKRSTHQPVPSPMNSQTSTNAKVNLSGKLMKFQLNSVQKFDEENILRILQNKIEFEHYFQIDKGKKQKVLLLAVYQCLNGPTRLHKVLNIEGIIHNNSIRTILGKQVSSSKWTVFLYDVKLVLLAHRQDVPNLETSKMIVRYGDLFPCALYFKDHTAY

Variants of: B1
Assay: DHFR protein-fragment complementation in yeast (Abp1-DHFR F[1,2] x partner-DHFR F[3]), deep mutational scanning, second methotrexate selection vs reference; S. cerevisiae, DHFR-PCA selection in liquid with methotrexate at 30 C, two 72 h selections (the score uses the second); reference = the pre-selection culture

Row | screen value | Variant
1 | -2.63 DMS score: mean over two replicates of log2(f_test/f_ref + 0.5)/ln 2, minus the synonymous-codon median (not a log2 … | chain 1 MALEPIDYTTHSREIDAEYLKIVRGSDPDTTWLIISPNAKKEYEPESTGSSFHDFLQLFDETKVQYGLARVSPPGSDVEKIIIIGWCPDSAPLKTRASFAANFAAVANNLFKGYHVQVTARDEDDLDENELLMKISNAAGARYSIQTSSKQQGKASTPPVKKSFTPSKSPAPVSKKEPVKTPSPAPAAKISSRVNDNNDDDDWNEPELKERDFDQAPLKPNQSSYKPIGKIDLQKVIAEEKAKEDPRLVQKPTAAGSKIDPSSDIANLKNESKLKRDSEFNSFLGTTKPPSMTESSLKNDDDKVIKGFRNEKSPAQLWAERKAKQNSGNAETKAEAPKPEVPEDEPEGEPDVKDLKSKFEGLAASEKEEEEMENKFAPPPKKSEPTIISPKPFSKPQEPVKAEEAEQPKTDYKKIGNPLPGMHIEADNEEEPEENDDDWDDDEDEAAQPPLPSRNVASGAPVQKEEPEQEEIAPSLPSRNSIPAPKQEEAPEQAPEEEIEEEAEEAAPQLPSRSSAAPPPPPRRATPEKKPKENPWATAEYDYDAAEDNELTFVENDKIINIEFVDDHWWLGELEKDGSKGLFPSNYVSLGN [chain 1 D568H]
2 | 0.786 DMS score: mean over two replicates of log2(f_test/f_ref + 0.5)/ln 2, minus the synonymous-codon median (not a log2 … | chain 1 MALEPIDYTTHSREIDAEYLKIVRGSDPDTTWLIISPNAKKEYEPESTGSSFHDFLQLFDETKVQYGLARVSPPGSDVEKIIIIGWCPDSAPLKTRASFAANFAAVANNLFKGYHVQVTARDEDDLDENELLMKISNAAGARYSIQTSSKQQGKASTPPVKKSFTPSKSPAPVSKKEPVKTPSPAPAAKISSRVNDNNDDDDWNEPELKERDFDQAPLKPNQSSYKPIGKIDLQKVIAEEKAKEDPRLVQKPTAAGSKIDPSSDIANLKNESKLKRDSEFNSFLGTTKPPSMTESSLKNDDDKVIKGFRNEKSPAQLWAERKAKQNSGNAETKAEAPKPEVPEDEPEGEPDVKDLKSKFEGLAASEKEEEEMENKFAPPPKKSEPTIISPKPFSKPQEPVKAEEAEQPKTDYKKIGNPLPGMHIEADNEEEPEENDDDWDDDEDEAAQPPLPSRNVASGAPVQKEEPEQEEIAPSLPSRNSIPAPKQEEAPEQAPEEEIEEEAEEAAPQLPSRSSAAPPPPPRRATPEKKPKENPWATAEYDYTAAEDNELTFVENDKIINIEFVDDDWWLGELEKDGSKGLFPSNYVSLGN [chain 1 D544T]
3 | 0.503 DMS score: mean over two replicates of log2(f_test/f_ref + 0.5)/ln 2, minus the synonymous-codon median (not a log2 … | chain 1 MALEPIDYTTHSREIDAEYLKIVRGSDPDTTWLIISPNAKKEYEPESTGSSFHDFLQLFDETKVQYGLARVSPPGSDVEKIIIIGWCPDSAPLKTRASFAANFAAVANNLFKGYHVQVTARDEDDLDENELLMKISNAAGARYSIQTSSKQQGKASTPPVKKSFTPSKSPAPVSKKEPVKTPSPAPAAKISSRVNDNNDDDDWNEPELKERDFDQAPLKPNQSSYKPIGKIDLQKVIAEEKAKEDPRLVQKPTAAGSKIDPSSDIANLKNESKLKRDSEFNSFLGTTKPPSMTESSLKNDDDKVIKGFRNEKSPAQLWAERKAKQNSGNAETKAEAPKPEVPEDEPEGEPDVKDLKSKFEGLAASEKEEEEMENKFAPPPKKSEPTIISPKPFSKPQEPVKAEEAEQPKTDYKKIGNPLPGMHIEADNEEEPEENDDDWDDDEDEAAQPPLPSRNVASGAPVQKEEPEQEEIAPSLPSRNSIPAPKQEEAPEQAPEEEIEEEAEEAAPQLPSRSSAAPPPPPRRATPEKKPKENPWATAEYDYHAAEDNELTFVENDKIINIEFVDDDWWLGELEKDGSKGLFPSNYVSLGN [chain 1 D544H]
4 | -2.15 DMS score: mean over two replicates of log2(f_test/f_ref + 0.5)/ln 2, minus the synonymous-codon median (not a log2 … | chain 1 MALEPIDYTTHSREIDAEYLKIVRGSDPDTTWLIISPNAKKEYEPESTGSSFHDFLQLFDETKVQYGLARVSPPGSDVEKIIIIGWCPDSAPLKTRASFAANFAAVANNLFKGYHVQVTARDEDDLDENELLMKISNAAGARYSIQTSSKQQGKASTPPVKKSFTPSKSPAPVSKKEPVKTPSPAPAAKISSRVNDNNDDDDWNEPELKERDFDQAPLKPNQSSYKPIGKIDLQKVIAEEKAKEDPRLVQKPTAAGSKIDPSSDIANLKNESKLKRDSEFNSFLGTTKPPSMTESSLKNDDDKVIKGFRNEKSPAQLWAERKAKQNSGNAETKAEAPKPEVPEDEPEGEPDVKDLKSKFEGLAASEKEEEEMENKFAPPPKKSEPTIISPKPFSKPQEPVKAEEAEQPKTDYKKIGNPLPGMHIEADNEEEPEENDDDWDDDEDEAAQPPLPSRNVASGAPVQKEEPEQEEIAPSLPSRNSIPAPKQEEAPEQAPEEEIEEEAEEAAPQLPSRSSAAPPPPPRRATPEKKPKENPWATAHYDYDAAEDNELTFVENDKIINIEFVDDDWWLGELEKDGSKGLFPSNYVSLGN [chain 1 E540H]
5 | 0.204 DMS score: mean over two replicates of log2(f_test/f_ref + 0.5)/ln 2, minus the synonymous-codon median (not a log2 … | chain 1 MALEPIDYTTHSREIDAEYLKIVRGSDPDTTWLIISPNAKKEYEPESTGSSFHDFLQLFDETKVQYGLARVSPPGSDVEKIIIIGWCPDSAPLKTRASFAANFAAVANNLFKGYHVQVTARDEDDLDENELLMKISNAAGARYSIQTSSKQQGKASTPPVKKSFTPSKSPAPVSKKEPVKTPSPAPAAKISSRVNDNNDDDDWNEPELKERDFDQAPLKPNQSSYKPIGKIDLQKVIAEEKAKEDPRLVQKPTAAGSKIDPSSDIANLKNESKLKRDSEFNSFLGTTKPPSMTESSLKNDDDKVIKGFRNEKSPAQLWAERKAKQNSGNAETKAEAPKPEVPEDEPEGEPDVKDLKSKFEGLAASEKEEEEMENKFAPPPKKSEPTIISPKPFSKPQEPVKAEEAEQPKTDYKKIGNPLPGMHIEADNEEEPEENDDDWDDDEDEAAQPPLPSRNVASGAPVQKEEPEQEEIAPSLPSRNSIPAPKQEEAPEQAPEEEIEEEAEEAAPQLPSRSSAAPPPPPRRATPEKKPKENPWATAEYDYDAAEDNELTFVENDLIINIEFVDDDWWLGELEKDGSKGLFPSNYVSLGN [chain 1 K558L]
